Earlier results as cited in US20060024387A1, “Methods and compositions for increasing milk production in animals” (priority 2004, published 2006).

Settings: injection

B1: BST: Hormone injected to increase milk production in lactating cows (protein, UniProt P01246 27-217, looked up)
Somatotropin: AFPAMSLSGLFANAVLRAQHLHQLAADTFKEFERTYIPEGQRYSIQNTQVAFCFSETIPAPTGKNEAQQKSDLELLRISLLLIQSWLGPLQFLSRVFTNSLVFGTSDRVYEKLKDLEEGILALMRELEDGTPRAGQILKQTYDKFDTNMRSDDALLKNYGLLSCFRKDLHKTETYLRVMKCRRFGEASCAF
  effect on milk production: increase milk production
